# ± gives the standard deviation of the averaged measurements.
# Experiments:
# MCF7 = assay: percentage of EdU-negative (G0-arrested) nuclei per well, 72 h; higher = more G0 arrest; details: reference: sequence is the full UniProt precursor, the tested protein was the secreted form or ectodomain
# hTERT-HMEC = assay: as above; details: reference: sequence is the full UniProt precursor, the tested protein was the secreted form or ectodomain
# [1] = protein concentration 0.020665 µM
# [2] = protein concentration 0.20665 µM
# [3] = protein concentration 0.0357143 µM
# [4] = protein concentration 0.357143 µM
# [5] = protein concentration 0.0225 µM
# [6] = protein concentration 0.03125 µM
# [7] = protein concentration 0.3125 µM
# [8] = protein concentration 0.00625 µM
# [9] = protein concentration 0.0625 µM
# [10] = protein concentration 0.00575 µM
# [11] = protein concentration 0.0575 µM
# 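Note: secreted proteins added to cultured cells, EdU pulse at the end, nuclei found by Hoechst imaging, EdU status from nuclear versus surrounding ring intensity ratio, PBS as neutral control.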
sequence,measurement,setting,value
MKVSEAALSLLVLILIITSASRSQPKVPEWVNTPSTCCLKYYEKVLPRRLVVGYRKALNCHLPAIIFVTKRNREVCTNPNDDWVQEYIKDPNLPLLPTRNLSTVKIITAKNGQPQLLNSQ,percentage of EdU-negative,MCF7; [1],22.9 ± 1.1%
same,percentage of EdU-negative,MCF7; [2],25.9 ± 2.8%
same,percentage of EdU-negative,hTERT-HMEC; [1],5.16 ± 1.1%
same,percentage of EdU-negative,hTERT-HMEC; [2],5.51 ± 0.14%
MKVSVAALSCLMLVAVLGSQAQFTNDAETELMMSKLPLENPVVLNSFHFAADCCTSYISQSIPCSLMKSYFETSSECSKPGVIFLTKKGRQVCAKPSGPGVQDCMKKLKPYSI,percentage of EdU-negative,MCF7; [3],24.9 ± 0.52%
same,percentage of EdU-negative,MCF7; [4],25.2 ± 0.81%
same,percentage of EdU-negative,hTERT-HMEC; [3],4.77 ± 0.69%
same,percentage of EdU-negative,hTERT-HMEC; [4],4.52 ± 1.2%
MKVSVAALSCLMLVTALGSQARVTKDAETEFMMSKLPLENPVLLDRFHATSADCCISYTPRSIPCSLLESYFETNSECSKPGVIFLTKKGRRFCANPSDKQVQVCMRMLKLDTRIKTRKN,percentage of EdU-negative,MCF7; [5],22.9 ± 1.3%
same,percentage of EdU-negative,MCF7; protein concentration 0.225 µM,24.7 ± 1.1%
same,percentage of EdU-negative,hTERT-HMEC; [5],4.81 ± 0.43%
same,percentage of EdU-negative,hTERT-HMEC; protein concentration 0.225 µM,5.12 ± 0.82%
MKVTGIFLLSALALLSLSGNTGADSLGREAKCYNELNGCTKIYDPVCGTDGNTYPNECVLCFENRKRQTSILIQKSGPC,percentage of EdU-negative,MCF7; [5],24 ± 0.32%
same,percentage of EdU-negative,MCF7; protein concentration 0.225 µM,25.6 ± 0.77%
same,percentage of EdU-negative,hTERT-HMEC; [5],5.21 ± 1.1%
same,percentage of EdU-negative,hTERT-HMEC; protein concentration 0.225 µM,4.61 ± 0.16%
MKVVPSLLLSVLLAQVWLVPGLAPSPQSPETPAPQNQTSRVVQAPKEEEEDEQEASEEKASEEEKAWLMASRQQLAKETSNFGFSLLRKISMRHDGNMVFSPFGMSLAMTGLMLGATGPTETQIKRGLHLQALKPTKPGLLPSLFKGLRETLSRNLELGLTQGSFAFIHKDFDVKETFFNLSKRYFDTECVPMNFRNASQAKRLMNHYINKETRGKIPKLFDEINPETKLILVDYILFKGKWLTPFDPVFTEVDTFHLDKYKTIKVPMMYGAGKFASTFDKNFRCHVLKLPYQGNATMLVVLMEKMGDHLALEDYLTTDLVETWLRNMKTRNMEVFFPKFKLDQKYEMHELLRQMGIRRIFSPFADLSELSATGRNLQVSRVLQRTVIEVDERGTEAVAGILSEITAYSMPPVIKVDRPFHFMIYEETSGMLLFLGRVVNPTLL [Q9UK55],percentage of EdU-negative,MCF7; [6],24.6 ± 0.79%
same,percentage of EdU-negative,MCF7; [7],29.5 ± 0.31%
same,percentage of EdU-negative,hTERT-HMEC; [6],4.46 ± 0.39%
same,percentage of EdU-negative,hTERT-HMEC; [7],11.5 ± 0.79%
MKVWLLLGLLLVHEALEDVTGQHLPKNKRPKEPGENRIKPTNKKVKPKIPKMKDRDSANSAPKTQSIMMQVLDKGRFQKPAATLSLLAGQTVELRCKGSRIGWSYPAYLDTFKDSRLSVKQNERYGQLTLVNSTSADTGEFSCWVQLCSGYICRKDEAKTGSTYIFFTEKGELFVPSPSYFDVVYLNPDRQAVVPCRVTVLSAKVTLHREFPAKEIPANGTDIVYDMKRGFVYLQPHSEHQGVVYCRAEAGGRSQISVKYQLLYVAVPSGPPSTTILASSNKVKSGDDISVLCTVLGEPDVEVEFTWIFPGQKDERPVTIQDTWRLIHRGLGHTTRISQSVITVEDFETIDAGYYICTAQNLQGQTTVATTVEFS,percentage of EdU-negative,MCF7; [8],27.9 ± 0.57%
same,percentage of EdU-negative,MCF7; [9],29.4 ± 1%
same,percentage of EdU-negative,hTERT-HMEC; [8],4.49 ± 0.2%
same,percentage of EdU-negative,hTERT-HMEC; [9],5.36 ± 0.45%
MKWLLLLGLVALSECIMYKVPLIRKKSLRRTLSERGLLKDFLKKHNLNPARKYFPQWEAPTLVDEQPLENYLDMEYFGTIGIGTPAQDFTVVFDTGSSNLWVPSVYCSSLACTNHNRFNPEDSSTYQSTSETVSITYGTGSMTGILGYDTVQVGGISDTNQIFGLSETEPGSFLYYAPFDGILGLAYPSISSSGATPVFDNIWNQGLVSQDLFSVYLSADDQSGSVVIFGGIDSSYYTGSLNWVPVTVEGYWQITVDSITMNGEAIACAEGCQAIVDTGTSLLTGPTSPIANIQSDIGASENSDGDMVVSCSAISSLPDIVFTINGVQYPVPPSAYILQSEGSCISGFQGMNLPTESGELWILGDVFIRQYFTVFDRANNQVGLAPVA [P0DJD7],percentage of EdU-negative,MCF7; [10],25.5 ± 2.2%
same,percentage of EdU-negative,MCF7; [11],24.6 ± 1.6%
same,percentage of EdU-negative,hTERT-HMEC; [10],4.41 ± 0.41%
same,percentage of EdU-negative,hTERT-HMEC; [11],5.85 ± 0.73%
MKWMVVVLVCLQLLEAAVVKVPLKKFKSIRETMKEKGLLGEFLRTHKYDPAWKYRFGDLSVTYEPMAYMDAAYFGEISIGTPPQNFLVLFDTGSSNLWVPSVYCQSQACTSHSRFNPSESSTYSTNGQTFSLQYGSGSLTGFFGYDTLTVQSIQVPNQEFGLSENEPGTNFVYAQFDGIMGLAYPALSVDEATTAMQGMVQEGALTSPVFSVYLSNQQGSSGGAVVFGGVDSSLYTGQIYWAPVTQELYWQIGIEEFLIGGQASGWCSEGCQAIVDTGTSLLTVPQQYMSALLQATGAQEDEYGQFLVNCNSIQNLPSLTFIINGVEFPLPPSSYILSNNGYCTVGVEPTYLSSQNGQPLWILGDVFLRSYYSVYDLGNNRVGFATAA,percentage of EdU-negative,MCF7; [5],24.38 ± 0.12%
same,percentage of EdU-negative,MCF7; protein concentration 0.225 µM,23.4 ± 0.35%
same,percentage of EdU-negative,hTERT-HMEC; [5],4.89 ± 0.11%
same,percentage of EdU-negative,hTERT-HMEC; protein concentration 0.225 µM,6.1 ± 0.73%

# Source: the supplement of paper PMC11316812
